Results: patent US20220056119A1 (Regeneron, published 2022)
Each block holds one binder with its values, some of them ahead of it.

What was measured:
Activin A [1] = target: T1, Activin A (human, UniProt P08476 311-426); experiment: SPR, 5 nM Activin A + 0.94 nM binder over hActRIIA-hFc surface
T1 construct: Homodimer of two betaA subunits; bought (R&D Systems #338-AC); also called inhibin-betaA dimer
T1 sequence: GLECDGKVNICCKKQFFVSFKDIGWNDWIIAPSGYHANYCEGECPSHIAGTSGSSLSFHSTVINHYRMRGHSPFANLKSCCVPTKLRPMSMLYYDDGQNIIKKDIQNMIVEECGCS
Description: (§1) The binding signal (RU) was measured at 150 seconds after the start of the injection, and this signal was subtracted by the measured RU value for a negative control reference surface to determine the specific binding signal.

Activin A [2] = target: T1, Activin A; experiment: SPR, 5 nM Activin A + 15 nM binder over hActRIIA-hFc surface
Description: as §1

Activin A [3] = target: T1, Activin A; experiment: SPR, 5 nM Activin A + 0.94 nM binder over Follistatin-288 surface
Description: as §1

Activin A [4] = target: T1, Activin A; experiment: SPR, 5 nM Activin A + 3.75 nM binder over Follistatin-288 surface
Description: as §1

Activin A [5] = target: T1, Activin A; experiment: SPR, 5 nM Activin A + 3.75 nM binder over hActRIIA-hFc surface
Description: as §1

Activin A [6] = target: T1, Activin A; experiment: cell-based or functional assay
Activin AB = target: T2, Activin AB (human, UniProt P08476 311-426; P09529 293-407); experiment: cell-based or functional assay
T2 chain 1: T1 sequence
T2 chain 2: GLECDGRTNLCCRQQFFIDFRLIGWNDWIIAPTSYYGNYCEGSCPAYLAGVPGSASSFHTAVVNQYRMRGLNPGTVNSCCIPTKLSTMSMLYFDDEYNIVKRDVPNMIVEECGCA

Activin AC = target: T3, Activin AC (human, UniProt P55103 237-352); experiment: cell-based or functional assay
T3 sequence 1: T1 sequence
T3 sequence 2: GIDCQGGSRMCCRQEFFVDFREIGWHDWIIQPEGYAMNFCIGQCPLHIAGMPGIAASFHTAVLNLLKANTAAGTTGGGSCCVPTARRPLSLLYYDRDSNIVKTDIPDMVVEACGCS

Activin A [7] = target: T1, Activin A; experiment: SPR, 5 nM Activin A + 1.88 nM binder over Follistatin-288 surface
Description: as §1

Activin A [8] = target: T1, Activin A; experiment: SPR, 5 nM Activin A + 30 nM binder over hActRIIA-hFc surface
Description: as §1

Activin A [9] = target: T1, Activin A; experiment: SPR, 5 nM Activin A + 30 nM binder over Follistatin-288 surface
Description: as §1

Activin A [10] = target: T1, Activin A; experiment: SPR, 5 nM Activin A + 0.00 nM binder (no inhibitor) over hActRIIA-hFc surface
Description: as §1

Activin A [11] = target: T1, Activin A; experiment: SPR, 5 nM Activin A + 0 nM binder (no inhibitor) over Follistatin-288 surface
Description: as §1

Activin A [12] = target: T1, Activin A; experiment: SPR, 5 nM Activin A + 60 nM binder over hActRIIA-hFc surface
Description: as §1

Activin A [13] = target: T1, Activin A; experiment: SPR, 5 nM Activin A + 15 nM binder over Follistatin-288 surface
Description: as §1

Activin A [14] = target: T1, Activin A; experiment: SPR, 5 nM Activin A + 7.50 nM binder over hActRIIA-hFc surface
Description: as §1

Activin A [15] = target: T1, Activin A; experiment: SPR, 5 nM Activin A + 60 nM binder over Follistatin-288 surface
Description: as §1

Activin A [16] = target: T1, Activin A; experiment: SPR, 5 nM Activin A + 7.5 nM binder over Follistatin-288 surface
Description: as §1

Activin A [17] = target: T1, Activin A; experiment: SPR, 5 nM Activin A + 1.88 nM binder over hActRIIA-hFc surface
Description: as §1

[18] = target: T4, Activin A (R&D Systems, #338-AC) (human, UniProt P08476 311-426); experiment: SPR blocking: 5 nM Activin A + 30 nM binder over hActRIIB-hFc (Control 4) surface
T4 construct: Bought protein; also called inhibin-βA dimer; homodimer of two βA subunits
T4 sequence: T1 sequence
Description: as §1

[19] = target: T4, Activin A (R&D Systems, #338-AC); experiment: SPR blocking: 5 nM Activin A + 60 nM binder over hActRIIB-hFc (Control 4) surface
Description: as §1

[20] = target: T4, Activin A (R&D Systems, #338-AC); experiment: SPR blocking: 5 nM Activin A + 7.50 nM binder over hActRIIB-hFc (Control 4) surface
Description: as §1

[21] = target: T4, Activin A (R&D Systems, #338-AC); experiment: SPR blocking: 5 nM Activin A + 15 nM binder over hActRIIB-hFc (Control 4) surface
Description: as §1

[22] = target: T4, Activin A (R&D Systems, #338-AC); experiment: SPR blocking: 5 nM Activin A + 0.00 nM binder over hActRIIB-hFc (Control 4) surface
Description: as §1

[23] = target: T4, Activin A (R&D Systems, #338-AC); experiment: SPR blocking: 5 nM Activin A + 0.94 nM binder over hActRIIB-hFc (Control 4) surface
Description: as §1

[24] = target: T4, Activin A (R&D Systems, #338-AC); experiment: SPR blocking: 5 nM Activin A + 1.88 nM binder over hActRIIB-hFc (Control 4) surface
Description: as §1

[25] = target: T4, Activin A (R&D Systems, #338-AC); experiment: SPR blocking: 5 nM Activin A + 3.75 nM binder over hActRIIB-hFc (Control 4) surface
Activin B = target: T5, Activin B (human, UniProt P09529 293-407); experiment: cell-based or functional assay
T5 chain: T2 chain 2

% bound RU w/ no inhibitor (Activin A [1]): 111%
% bound RU w/ no inhibitor (Activin A [2]): 108%
% bound RU w/ no inhibitor (Activin A [3]): 77%
% bound RU w/ no inhibitor (Activin A [4]): 7%
% bound RU w/ no inhibitor (Activin A [5]): 85%
IC50, inhibition of 100 pM Activin A in A204/CAGAx12-Luc luciferase bioassay (Activin A [6]): 4.7e-11 M
IC50, inhibition of 30 pM Activin AB in A204/CAGAx12-Luc luciferase bioassay (Activin AB): 8.2e-09 M
IC50, inhibition of 4 nM Activin AC in A204/CAGAx12-Luc luciferase bioassay (Activin AC): 5.6 nM
% bound RU w/ no inhibitor (Activin A [7]): 54%
% bound RU w/ no inhibitor (Activin A [8]): 98%
% bound RU w/ no inhibitor (Activin A [9]): 3%
% bound RU w/ no inhibitor (Activin A [10]): 100%
% bound RU w/ no inhibitor (Activin A [11]): 100%
% bound RU w/ no inhibitor (Activin A [12]): 118%
% bound RU w/ no inhibitor (Activin A [13]): 3%
% bound RU w/ no inhibitor (Activin A [14]): 94%
% bound RU w/ no inhibitor (Activin A [15]): 3%
% bound RU w/ no inhibitor (Activin A [16]): 3%
% bound RU w/ no inhibitor (Activin A [17]): 115%
B1: H4H10446P2 (antibody, human IgG4, V domains shown)
VH: QVQLQESGPGLVKPSETLSLTCTVSGGSFSSHFWSWIRQPPGKGLEWIGYILYTGGTSFNPSLKSRVSMSVGTSKNQFSLKLSSVTAADTAVYYCARARSGITFTGIIVPGSFDIWGQGTMVTVSS
VL: not shown
notes: also called mAb2

% bound RU w/ no inhibitor [18]: 3%
% bound RU w/ no inhibitor [19]: 4%
% bound RU w/ no inhibitor [20]: 3%
% bound RU w/ no inhibitor [21]: 2%
% bound RU w/ no inhibitor [22]: 100%
% bound RU w/ no inhibitor [23]: 80%
% bound RU w/ no inhibitor [24]: 60%
% bound RU w/ no inhibitor [25]: 19%
B2: H4H10436P2 (antibody, human IgG4, V domains shown)
VH: QVQLVESGGGVVQPGRSLRLTCVASGFTVSSYGMHWVRQAPGKGLEWVAVMFYDESKKYYADSVKGRFTISRDNSKNTLYLQMNSLRVEDTAVYYCARDEQLDFEYWGQGTLVTVSS
VL: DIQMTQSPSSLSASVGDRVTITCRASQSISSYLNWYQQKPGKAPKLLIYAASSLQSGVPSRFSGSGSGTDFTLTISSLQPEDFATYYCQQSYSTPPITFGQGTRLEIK

IC50, inhibition of 50 pM Activin B in A204/CAGAx12-Luc luciferase bioassay (Activin B): 1e-07 M
IC50, inhibition of 100 pM Activin A in A204/CAGAx12-Luc luciferase bioassay (Activin A [6]): 1.5e-10 M
B3: H4H10433P2 (antibody, human IgG4, V domains shown)
VH: EVQLVESGGGLVQAGRSLRLSCEASGFTFDDYGMHWVRQGPGKGLEWVSGISWNSGNIDYADSVKGRFTISRDNAKTSLYLQMNSLKTDDTALYFCAKDAVGFNWNYFLFDYWGQGTLVTVSS
VL: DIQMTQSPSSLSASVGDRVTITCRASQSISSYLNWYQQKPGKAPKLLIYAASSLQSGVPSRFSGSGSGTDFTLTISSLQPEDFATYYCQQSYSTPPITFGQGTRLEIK

% bound RU w/ no inhibitor [18]: 3%
% bound RU w/ no inhibitor [19]: 3%
% bound RU w/ no inhibitor [20]: 4%
% bound RU w/ no inhibitor [21]: 3%
% bound RU w/ no inhibitor [22]: 100%
% bound RU w/ no inhibitor [23]: 80%
% bound RU w/ no inhibitor [24]: 62%
% bound RU w/ no inhibitor [25]: 20%
B4: H4H10430P (antibody, human IgG4, V domains shown)
VH: EVQLVESGGGLVQPGRSLRLSCKASGFAFDDFAMHWVRQAPGKGLEWVSGIVWNSGDIGYADSVKGRFTISRDNAKNSLYLQLNSLRTEDTALYFCVKDMVRGLMGFNYYGMDVWGQGTTVTVSS
VL: EIVLTQSPATLSLSPGERATLSCRASQTISTYLVWYRQRPGQAPSLLIYDASNRATDIPARFSGSGSGTDFTLTISSLEPEDFAVYYCQQRSNWPITFGQGTRLEIK
notes: also called mAb1

% bound RU w/ no inhibitor [18]: 2%
% bound RU w/ no inhibitor [19]: 3%
% bound RU w/ no inhibitor [20]: 2%
% bound RU w/ no inhibitor [21]: 2%
% bound RU w/ no inhibitor [22]: 100%
% bound RU w/ no inhibitor [23]: 87%
% bound RU w/ no inhibitor [24]: 67%
% bound RU w/ no inhibitor [25]: 19%
B5: H4H10429P (antibody, human IgG4, V domains shown)
VH: QVQLVESGGGVVQPGRSLRLSCVASGFTVSSYGIHWVRQAPGKGLEWVSVIWYDGRNKDYADSVKGRFTISRDNSKNTVYLEMKGLRAEDTALYYCARDKTGDFDSWGQGTLVTVSS
VL: DIQMTQSPSSLSASVGDRVTITCRASQNINSFLSWYQQKPGKAPKFLIYDASSIQSGAPSRFSGSGSGTDFTLTISSLQPEDFATYYCQQSYSSPFTFGQGTKLEIK

% bound RU w/ no inhibitor [18]: 41%
% bound RU w/ no inhibitor [19]: 41%
% bound RU w/ no inhibitor [20]: 42%
% bound RU w/ no inhibitor [21]: 42%
% bound RU w/ no inhibitor [22]: 100%
% bound RU w/ no inhibitor [23]: 93%
% bound RU w/ no inhibitor [24]: 78%
% bound RU w/ no inhibitor [25]: 47%
B6: H4H10423P (antibody, human IgG4, V domains shown)
VH: QVQLQQSGPGLLKPSQTLSLTCAISGDSVSSNSAAWSWIRQSPSRGLEWLGRTYYRANWFNDYALSVKSRITINPVTSTNHFSLQLHSVTPEDTAVYYCAREGALGYYFDSWGQGTLVTVSS
VL: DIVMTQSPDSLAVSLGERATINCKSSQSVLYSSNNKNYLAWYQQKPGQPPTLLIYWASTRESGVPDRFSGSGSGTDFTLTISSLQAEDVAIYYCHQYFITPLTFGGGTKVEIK

% bound RU w/ no inhibitor [18]: 4%
% bound RU w/ no inhibitor [19]: 4%
% bound RU w/ no inhibitor [20]: 7%
% bound RU w/ no inhibitor [21]: 4%
% bound RU w/ no inhibitor [22]: 100%
% bound RU w/ no inhibitor [23]: 79%
% bound RU w/ no inhibitor [24]: 58%
% bound RU w/ no inhibitor [25]: 19%
B7: H4H10440P2 (antibody, human IgG4, V domains shown)
VH: EVQLVESGGGVVQPGGSLRLSCAASTFTFDDFAMHWVRQAPGKGLEWVSLITGDGGSTYYADPVKGRFTISRDNSKNSLYLQMNSLRTEDTALYYCVKDWWIAARPDYYYYGMDVWGQGTTVTVSS
VL: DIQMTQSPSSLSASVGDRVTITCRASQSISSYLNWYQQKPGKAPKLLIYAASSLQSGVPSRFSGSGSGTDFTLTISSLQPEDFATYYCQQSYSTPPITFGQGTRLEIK

% bound RU w/ no inhibitor [18]: 122%
% bound RU w/ no inhibitor [19]: 124%
% bound RU w/ no inhibitor [20]: 103%
% bound RU w/ no inhibitor [21]: 115%
% bound RU w/ no inhibitor [22]: 100%
% bound RU w/ no inhibitor [23]: 110%
% bound RU w/ no inhibitor [24]: 106%
% bound RU w/ no inhibitor [25]: 88%
B8: H4H10442P2 (antibody, human IgG4, V domains shown)
VH: QVQLQESGPGLVKPSETLSITCTVSGGSFSSHFWTWIRQPPGKGLEWIGYLHYSGGTSYNPSLKSRVIISVDTSKNQFSLKLNSVTAADTAVYYCARARSGITFGGLIVPGSFDIWGQGTMVTVSS
VL: not shown

% bound RU w/ no inhibitor [18]: 89%
% bound RU w/ no inhibitor [19]: 129%
% bound RU w/ no inhibitor [20]: 95%
% bound RU w/ no inhibitor [21]: 115%
% bound RU w/ no inhibitor [22]: 100%
% bound RU w/ no inhibitor [23]: 107%
% bound RU w/ no inhibitor [24]: 105%
% bound RU w/ no inhibitor [25]: 76%
B9: H4H10446P2 (antibody, human IgG4, V domains shown)
VH: B1 VH
VL: not shown
notes: also called mAb2
